Experimental data taken from US12077763B2, “RNA-based control of powdery mildew” (Greenlight Biosciences, Inc., priority 2021, dated 2024).

B1: GS2799 (nucleic acid)
sense: UAGCAACGGGACGUCCACUUUGUACUCUUACAGCUUCACGUGUAUUAUCAAUCACUGAUUGAUGGUACUCAUGAGAGCCAUGAGAAAAAUUCAUACGGACAACAUUCAGACCAGCUCUUCGAAGUCCAUUUAAGGCCUCGACAUUGUUAGUUUUGGGGCCAAUAGUACAGAUAAUCGAGGUUCGACGAUAAUUCUUAGAGGUGGCAUACUCAGUGUCAAGUUGUGAUAGCCAUUCAAUGCGAGUAGAGCUGGUUAGGUGAUUCAUAGCUGAAACCAUAUUUUGAUCUAAUGAGAACUUUUAUUUGAUGUGAACGUAAAUAGUUGAGGAUGUGUAAAGUUGAGGAGAGAGUUGGCCAAAGAUACUCUUUGAGGGUAGCAAAUUUCGUUUAUCUUAUUAU
antisense: AUAAUAAGAUAAACGAAAUUUGCUACCCUCAAAGAGUAUCUUUGGCCAACUCUCUCCUCAACUUUACACAUCCUCAACUAUUUACGUUCACAUCAAAUAAAAGUUCUCAUUAGAUCAAAAUAUGGUUUCAGCUAUGAAUCACCUAACCAGCUCUACUCGCAUUGAAUGGCUAUCACAACUUGACACUGAGUAUGCCACCUCUAAGAAUUAUCGUCGAACCUCGAUUAUCUGUACUAUUGGCCCCAAAACUAACAAUGUCGAGGCCUUAAAUGGACUUCGAAGAGCUGGUCUGAAUGUUGUCCGUAUGAAUUUUUCUCAUGGCUCUCAUGAGUACCAUCAAUCAGUGAUUGAUAAUACACGUGAAGCUGUAAGAGUACAAAGUGGACGUCCCGUUGCUA
B2: GS2684 (nucleic acid)
sense: UUGGCAGCUCGCCAUUUCUUAUCAAAGAGAUACCUAAAUGAUAAACUUAAAAUACUUGCAGUGAAUAUAUCUGCUAGAGUAAGACGCUCUCCAACUAAGAAUGUGUUGUUUUGAAGAGUAUCCUCAAAAAUUUGAGCAUAAUCGAUUGUUUUUUUGACACCUUCAUCAUAAACCUUUUUAUUGUAUGCGACAAUACCAAAAAAAGGAUAAAGCCAGCUGGCAUAGCAGUUACUAAUAUCUUGAUUGACAAAAGACAUCCACUUUAAAAUAGAGGCAUAAGUCUAAUUAUGAAAGUCCACACGGAGUGUUAAGACAGGGACUGUUUUAUGUCAAGGAAAAUUUUUCAACUGAGAGAGCUUAGCAUACUCCUGCUUGGUUUU
antisense: AAAACCAAGCAGGAGUAUGCUAAGCUCUCUCAGUUGAAAAAUUUUCCUUGACAUAAAACAGUCCCUGUCUUAACACUCCGUGUGGACUUUCAUAAUUAGACUUAUGCCUCUAUUUUAAAGUGGAUGUCUUUUGUCAAUCAAGAUAUUAGUAACUGCUAUGCCAGCUGGCUUUAUCCUUUUUUUGGUAUUGUCGCAUACAAUAAAAAGGUUUAUGAUGAAGGUGUCAAAAAAACAAUCGAUUAUGCUCAAAUUUUUGAGGAUACUCUUCAAAACAACACAUUCUUAGUUGGAGAGCGUCUUACUCUAGCAGAUAUAUUCACUGCAAGUAUUUUAAGUUUAUCAUUUAGGUAUCUCUUUGAUAAGAAAUGGCGAGCUGCCAA
B3: ES49: dsRNA trigger SEQ ID NO 112; gene target Hypotethical effector (nucleic acid)
DNA: ATGCGTTTCATCATAGGAGCTGTCGTCTCTTCACTCATTTTGTCGCCAATTTCAGTGCTTTCTATGGCGGCTAGTAATGACTCTACCGAAGCTGCAGCGCATATCATAAATGATTCTATACTAGAAGATGTTTCGAACGTTGCAGATTTCGACTGGTCTTCAACGTCATATCAAGGCCTAGAGAAAAGATTTTGTTTCAGACGAGGATGCAAGGAAGAAAAGCTCAAGAGGACATCAGGTTTCCAATGCAAAAAGAAGTACATCAGCTCGGAGAAAATTGAGAGAGCAAAAGCCGCTGGCTGTCCGGAAATCAAAAAAAATAAGCAGCGATCCGCTTTTCCTTCTCTCTACACTGCATCCGACTTTGCTGTTCCAGGTCCTTACCTAGAATGGCCGATCAGCCGCAATGGAAGGTTTTGGAACAAATTGAGTAAGGGCAAGTACCGTATCATCATGACCAAAAGCTGCAAGGTGG
B4: GS2685 (nucleic acid)
sense: GUCUCAUAUCACGAACAGCGAAGCGACCUAAUGGAGGAUAACUUGAAAAUGACUCAACACACAUAGGUUUAGAUGGAAUCAUUUUAACAAUUGCUGCGUCACCAGAUUUAACAAAUUUUGGAGUUGCCUCAAUAGACUUUCCAGUACGACGAUCAAUUUUUUCAAGAAGUUCUGCAAAUUUGCAAGCAAUGUGAGCCGUAUGACAAUCAAGUACAGGUGCGUAACCAGCUCCAAUUUGACCUGGGUGGUUUAACACGAUAACUUGUGCGGUAAAAUGCUCGGCACCCUUAGGGGGGUCAUUCUUAGAAUCACCACAAACAUUACCACGACGGAUUUCUUUCACCGAAACGUUCUUUACAUUGAAGCCAA
antisense: UUGGCUUCAAUGUAAAGAACGUUUCGGUGAAAGAAAUCCGUCGUGGUAAUGUUUGUGGUGAUUCUAAGAAUGACCCCCCUAAGGGUGCCGAGCAUUUUACCGCACAAGUUAUCGUGUUAAACCACCCAGGUCAAAUUGGAGCUGGUUACGCACCUGUACUUGAUUGUCAUACGGCUCACAUUGCUUGCAAAUUUGCAGAACUUCUUGAAAAAAUUGAUCGUCGUACUGGAAAGUCUAUUGAGGCAACUCCAAAAUUUGUUAAAUCUGGUGACGCAGCAAUUGUUAAAAUGAUUCCAUCUAAACCUAUGUGUGUUGAGUCAUUUUCAAGUUAUCCUCCAUUAGGUCGCUUCGCUGUUCGUGAUAUGAGAC
B5: GS2680 (nucleic acid)
sense: UACUAACAAACUGUCCACCAAAAGUAUAUAUAAUUCCUGCAACUGAGGGAGUAGAUCGCUUGCAAAUAAAAUCAAAAUCUAGCAUUCCUUGAACAGCUCUAGGCUGAAGACCAUAGACGAAACAUCUUGUUUUAUCAUGGAAGAGUGUAUGAGUUGCGUGAGGGCUCAAUGGGCGGCUAGGAGCAGCAAACCGACAGAUGUUAUCAUUGGCUGAUUGCCCAACUUUCGUAGUAUCAUUUGGAGUAGCUGAUGGCAUUUUAAAAUAUUACAAGGUCACAGAGUGUAAUUUUGGGCCUGAUUUCUUCUGUAGAGAUGACUCAAGUAGUAAUAUUUAUCUCUUUCAAUGGUGUAGUAUAUUAAUAGUAUACUCGGGAGAGAAAAUGAUGUGAUAAAAAUUA
antisense: UAAUUUUUAUCACAUCAUUUUCUCUCCCGAGUAUACUAUUAAUAUACUACACCAUUGAAAGAGAUAAAUAUUACUACUUGAGUCAUCUCUACAGAAGAAAUCAGGCCCAAAAUUACACUCUGUGACCUUGUAAUAUUUUAAAAUGCCAUCAGCUACUCCAAAUGAUACUACGAAAGUUGGGCAAUCAGCCAAUGAUAACAUCUGUCGGUUUGCUGCUCCUAGCCGCCCAUUGAGCCCUCACGCAACUCAUACACUCUUCCAUGAUAAAACAAGAUGUUUCGUCUAUGGUCUUCAGCCUAGAGCUGUUCAAGGAAUGCUAGAUUUUGAUUUUAUUUGCAAGCGAUCUACUCCCUCAGUUGCAGGAAUUAUAUAUACUUUUGGUGGACAGUUUGUUAGUA
B6: GS2804 (nucleic acid)
sense: UUUUAAAGCUAUGUAUCCUCAAGUAACAGAAUUAGAAAACCUAGUUUUCAAAUUGAGAUUUUGGAAAAAAUCUAACAACCACUUCACUUGGCUCCAUCAAUUUUGGAAAUAUAACUUAGGAGAUCUAAAACACGGCGAGAGUAACCCCAUUCAUUAUCAUACCAUGAUACGAGUUUGACAAAGUUGUCAUUGAGCGAGAUUCCAGCUUUCGCGUCGAAAAUGGAUGAGUGAUUAUCACCGAUUAAAUCAGUUGAAACGAUGUCAUCCUCAGUAUAAGAAAGUAUGCCUUUUAAUUCACCAUUGGCAGCCUCCUUGAUAGCAGCCUUAAUUUGGUCAUAAGUAGCACCCUUUCCAAUGCGGCAUGUUAAGUCAACAACGGAAACAUUAGCAGUGGGUA
antisense: UACCCACUGCUAAUGUUUCCGUUGUUGACUUAACAUGCCGCAUUGGAAAGGGUGCUACUUAUGACCAAAUUAAGGCUGCUAUCAAGGAGGCUGCCAAUGGUGAAUUAAAAGGCAUACUUUCUUAUACUGAGGAUGACAUCGUUUCAACUGAUUUAAUCGGUGAUAAUCACUCAUCCAUUUUCGACGCGAAAGCUGGAAUCUCGCUCAAUGACAACUUUGUCAAACUCGUAUCAUGGUAUGAUAAUGAAUGGGGUUACUCUCGCCGUGUUUUAGAUCUCCUAAGUUAUAUUUCCAAAAUUGAUGGAGCCAAGUGAAGUGGUUGUUAGAUUUUUUCCAAAAUCUCAAUUUGAAAACUAGGUUUUCUAAUUCUGUUACUUGAGGAUACAUAGCUUUAAAA
B7: GS3295 (nucleic acid)
sense: UCAUCUUUUGCCGCUCUUUAUCAUGAUCUUGAUAUGGGAUUUACACCGAUCAACUUUACAUUUUACUGGGCACCUCUACCUUGGAAUCGUGCUCGUGAUCAUGCCCAAAGAACUGUUGCUAGGACGAACCUCGCUCCAAGGGGGCUUUAUGGGAAUCUGCCUCGUAGUAUAAAGUUCUGCAGCUGGCUCUACGGAUUGCAUCUACAACAACUACAACAUCAUCAUCAUCAUCAUCUUCAUCUUCAUCUUC
antisense: GAAGAUGAAGAUGAAGAUGAUGAUGAUGAUGAUGUUGUAGUUGUUGUAGAUGCAAUCCGUAGAGCCAGCUGCAGAACUUUAUACUACGAGGCAGAUUCCCAUAAAGCCCCCUUGGAGCGAGGUUCGUCCUAGCAACAGUUCUUUGGGCAUGAUCACGAGCACGAUUCCAAGGUAGAGGUGCCCAGUAAAAUGUAAAGUUGAUCGGUGUAAAUCCCAUAUCAAGAUCAUGAUAAAGAGCGGCAAAAGAUGA
B8: GS2732 (nucleic acid)
sense: GGAAAAUGUGAGUUGCCGCCAUCGAUAAUUAUGUCUCCUUGAUCGAGGAAUGGCAAUAAUGUUUCAAUAAAAUCAUCAACAGGCUUUCCAGCCAUGACAAGCAGCAUAAUACGACGUGGUUUUUUUAGUUUACUCACAAAUUCCUGGAUAGAACGAGCACCUUCAAUAGAUUUCCCUUUUGCCUCAUUUUCAAGAAAGUGGUCUACCUUAGCUACAGUUCGAUUAUAUGCAAUAACAUUAAAUCCAUGGUCUGCAGCAUUCAGAAUUAGAUUCUGCCCCAUGACAGCUAGACCGAUAAGGCCAAAGUCUCCUGUAGCAGCACUCAUAUUUUUUUGAUUAUAAAUUUAGAAGCCCAAAGACUGGAGCUUAUAUGGAGAACAGAGAUUACACAGAUGGGA
antisense: UCCCAUCUGUGUAAUCUCUGUUCUCCAUAUAAGCUCCAGUCUUUGGGCUUCUAAAUUUAUAAUCAAAAAAAUAUGAGUGCUGCUACAGGAGACUUUGGCCUUAUCGGUCUAGCUGUCAUGGGGCAGAAUCUAAUUCUGAAUGCUGCAGACCAUGGAUUUAAUGUUAUUGCAUAUAAUCGAACUGUAGCUAAGGUAGACCACUUUCUUGAAAAUGAGGCAAAAGGGAAAUCUAUUGAAGGUGCUCGUUCUAUCCAGGAAUUUGUGAGUAAACUAAAAAAACCACGUCGUAUUAUGCUGCUUGUCAUGGCUGGAAAGCCUGUUGAUGAUUUUAUUGAAACAUUAUUGCCAUUCCUCGAUCAAGGAGACAUAAUUAUCGAUGGCGGCAACUCACAUUUUCC

What follows are molecules tested on E. necator (assay: Leaf disc assay, dry inoculum (settling tower), decrease in disease severity / hyphal growth (Example 2)). Conditions: decrease in disease severity (hyphal growth) relative to untreated control; time point 1 (untreated control hyphal growth ≥50%); value ± SE.

| Molecule | % decrease =/− SE TP1 [%] |
| --- | --- |
| B1 | 31 ± 5 |
| B2 | 31 ± 4 |
| B3 | 9 ± 1 |
| B4 | 23 ± 0 |
| B5 | 12 ± 4 |
| B6 | 32 ± 5 |
| B7 | 33 ± 6 |

Same assay, conditions: decrease in disease severity (hyphal growth) relative to untreated control; time point 2; value ± SE

| Molecule | % decrease =/− SE TP2 [%] |
| --- | --- |
| B1 | 20 ± 8 |
| B2 | 18 ± 4 |
| B8 | 18 ± 10 |
| B3 | 6 ± 3 |
| B4 | 15 ± 0 |
| B5 | 11 ± 5 |
| B6 | 10 ± 8 |
| B7 | 26 ± 8 |
